Patent US20250282887A1 (Amgen, published 2025)

Legend:
[1] = biological target: T1, Human MAGEB2 (Melanoma-associated antigen B2) (human, UniProt O15479 1-319); test: IHC on FFPE T98G cells (endogenous MAGEB2)
T1 construct: Intracellular antigen detected by IHC in FFPE material: CHO cells transfected with human MAGEB2 (mCherry vector with Myc/DDK tags, or ORF without tags)
T1 sequence: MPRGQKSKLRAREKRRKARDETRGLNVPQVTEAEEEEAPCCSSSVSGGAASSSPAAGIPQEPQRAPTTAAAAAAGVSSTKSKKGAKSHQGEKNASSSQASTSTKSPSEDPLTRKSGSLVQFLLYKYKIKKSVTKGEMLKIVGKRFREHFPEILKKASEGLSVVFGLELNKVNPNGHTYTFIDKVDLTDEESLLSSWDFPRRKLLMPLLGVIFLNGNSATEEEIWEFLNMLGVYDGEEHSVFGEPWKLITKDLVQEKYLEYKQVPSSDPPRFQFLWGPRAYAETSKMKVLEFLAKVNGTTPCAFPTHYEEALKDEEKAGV
Procedure: (§1) FFPE samples were sectioned at 4 μm and mounted on positive charged glass slides. After mounting, paraffin sections were air-dried at room temperature. FFPE TMA samples were received as freshly sectioned and mounted on glass slides. The fully automated IHC assay was performed on a Discovery Ultra Stainer (Ventana Medical Systems, Tucson, AZ) using Ventana Anti-Rabbit HQ (cat #760-4815), Ventana Anti-HQ HRP (cat #760-4820), and Ventana Antibody Diluent with Casein (cat #760-219) (Ventana Medical Systems, Tucson, AZ). The slides were baked on the Discovery Ultra Stainer at 60° C. for 8 minutes, de-paraffinized with Ventana Discovery wash (cat #950-510) for 3 cycles (8 minutes each) at 69° C., and underwent cell conditioning (target retrieval) at 95° C. for 16 minutes (for cell arrays) or 32 minutes (tissues or TMAs) in CC1 buffer (cat #950-500). Following this, slides were incubated with Background Sniper (cat #BS966M, Biocare Medical, Pacheco, CA) in a Ventana Option Prep kit (cat #771-751) for 28 minutes, incubated with CM inhibitor (a part of the Ventana DAB kit cat #760-159) for 12 minutes, and incubated for 1 h at RT with MAGE-B2 antibody diluted with Ventana diluent with Casein in a Ventana Prep kit (cat #770-001) (working concentration at 0.1 μg/ml for cell pellet, or 1-5 ug/ml for tissues) or with a matched concentration of isotype control Rabbit IgG1 antibody. Following this, slides were incubated with the Ventana Anti-Rabbit HQ (cat #760-4815) for 28 minutes at RT, Ventana Anti-HQ HRP (cat #760-4820) for 28 minutes at RT, and signals detected with Ventana DAB chromogen kit (cat #760-159) for 5 minutes at RT. Slides were counterstained with Ventana Hematoxylin II (cat #5266726001) for 8 minutes and Ventana Bluing reagent (cat #526676900) for 4 minutes. Slides were coverslipped and digitized using an Aperio AT2 scanner (Leica Biosystems Inc, Buffalo Grove, IL).

[2] = biological target: T1, Human MAGEB2 (Melanoma-associated …); test: IHC on FFPE NCI-H1703 cells (endogenous MAGEB2)
Procedure: as §1

[3] = biological target: T2, human MAGEA5 (human, UniProt P43359 1-124); test: IHC, FFPE CHO cells transfected with human MAGEA5
T2 construct: whole, on cells; FFPE cell pellets
T2 sequence (looked up): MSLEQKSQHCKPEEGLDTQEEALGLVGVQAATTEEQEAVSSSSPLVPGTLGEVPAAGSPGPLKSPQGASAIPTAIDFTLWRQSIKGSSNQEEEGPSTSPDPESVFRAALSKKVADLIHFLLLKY
Source text: Negative control cells included parental Chinese hamster ovary (CHO) cells, CHO cells stably transfected with mCherry Vector Control (minus Myc/DDK tags), CHO cells stably transfected with mCherry-human DCAF4L2 (plus Myc/DDK tags). The cross-reactivity control cells included CHO cells transfected with mCherry Vector Control (plus Myc/DDK tags) with one of the human MAGE-B or MAGE-A family members (MAGEA1, MAGEA2, MAGEA3, MAGEA4, MAGEA5, MAGEA6, MAGEA8, MAGEA9, MAGEA11, MAGEA12, MAGEB1, MAGEB3, MAGEB4, MAGEB5, MAGEB6, MAGEB10, MAGEB16, MAGEB17, MAGEB18). Positive control cell lines included CHO cells transfected with mCherry Vector (plus Myc/DDK tags) with human MAGE-B2 or CHO cells transfected with mCherry Vector (open reading frame (ORF); minus Myc/DDK tags) with human MAGEB2, and thirteen human cancer cell lines with known endogenous RNA expression level of MAGEB2 (U266B1, T98G, KMM-1, U20S, CFPAC-1, SCaBER, UACC-257, CFPAC-1, VMRC-LCD, NCI-H1703, UM-UC-3, NCI-H1395, NCIH82).
as §1, with “antibody.” for “antibody. Following this, slides were incubated with the Ventana Anti-Rabbit HQ (cat #760-4815) for 28 minutes at RT, Ventana Anti-HQ HRP (cat #760-4820) for 28 minutes at RT, and signals detected with Ventana DAB chromogen kit (cat #760-159) for 5 minutes at RT. Slides were counterstained with Ventana Hematoxylin II (cat #5266726001) for 8 minutes and Ventana Bluing reagent (cat #526676900) for 4 minutes. Slides were coverslipped and digitized using an Aperio AT2 scanner (Leica Biosystems Inc, Buffalo Grove, IL).”

[4] = biological target: T1, Human MAGEB2 (Melanoma-associated …); test: IHC on FFPE NCI-H1395 cells (endogenous MAGEB2)
Procedure: as §1

[5] = biological target: T3, human MAGEA6 (human, UniProt P43360 1-314); test: IHC, FFPE CHO cells transfected with human MAGEA6
T3 construct: whole, on cells; FFPE cell pellets
Procedure: as §1

T3 sequence (P43360 whole entry): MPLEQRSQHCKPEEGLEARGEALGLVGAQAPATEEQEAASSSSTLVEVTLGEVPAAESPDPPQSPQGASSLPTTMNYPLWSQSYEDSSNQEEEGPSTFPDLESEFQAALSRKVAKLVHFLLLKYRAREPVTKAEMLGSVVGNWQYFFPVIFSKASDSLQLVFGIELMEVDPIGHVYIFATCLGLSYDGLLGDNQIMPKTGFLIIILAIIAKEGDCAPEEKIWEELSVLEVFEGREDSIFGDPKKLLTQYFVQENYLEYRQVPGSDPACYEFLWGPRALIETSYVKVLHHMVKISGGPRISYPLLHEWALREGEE

| Binder | IHC % Frequency [1] | IHC Intensity [1] | IHC % Frequency [2] | binding result [3] | IHC % Frequency [4] | IHC Intensity [4] | binding result [5] | IHC Intensity [2] |
| --- | --- | --- | --- | --- | --- | --- | --- | --- |
| 1I14 (antibody, V domains shown, also called MAGE-B2 (1i14)) VH: QSVEESGGRLVTPGTPLTLTCTISGFSLSSYAMSWVRQAPGKGLEWIGSIGGGGSAVYASWAKGRFTISKTSTTVDLRITSPTTEDTAMYFCGRGFYSIDLWGPGTLVTVSS VL: DVVMTQTPASVEATVGGTVTIKCQSSQSVYDNNALAWYQQNAGQRPRLLIYGASTLASGVPSRFSASGSGTEFTLTISDLECADAATYYCQCTYYVSSYQNDFGGGTEVVVKG | 70% | 2 | 0% | no binding (tested: 0.1 µg/ml) | 0% | 0 | no binding (tested: 0.1 µg/ml) |  |
| 1C3 (antibody, V domains shown, also called MAGE-B2 (IC3); anti-MAGEB2 antibody 1C3) VH: QSLEESGGGLVQPEGSLTLTCTAFGVTLTNYYICWVRQAPGKGLEWVGCIDNANGRTYYASWAKGRFTISKTSSTTGTLQMTSLTAADTATYFCARSLATPLWGPGTLVTVSS VL: DIVMTQTPSSVEAAVGGTVTIKCQASQNISSYLAWYQQKPGQPPKLLIYRASTLASGVPSRFKGSGSGTQFTLTISDLECADAATYYCQSYDDSRSSNFFYAFGGGTEVVVKG | 70% | 2 | 0% | no binding (tested: 0.1 µg/ml) | 0% | 0 | no binding (tested: 0.1 µg/ml) |  |
| 4G17 (antibody, IgG1, V domains shown, Rabbit monoclonal IgG1; Tested as supernatant and as small batch purified antibody; also called MAGE-B2 (4G17); anti-MAGEB2 antibody 4G17) VH: QSLEESGGGLVQPEGSLTLTCTASGVTLSNYYICWVRQAPGKGLEWIGCIDNVNGRTYYASWAKGRFTISKTSSTTGTLQMTSLTAADTATYFCARSLATPLWGPGTLVTVSS VL: DIVMTQTPASVEAAVGGTVTIKCQASQNIDSYLAWYQQKPGQPPKLLIYRASTLASGVPSRFKGSGSGTEFTLTISDLECADAATYYCQSYDDSRSSSFFYGFGGGTEVVVK | 70% | 2 | 0% | no binding (tested: 0.1 µg/ml) | 0% | 0 | no binding (tested: 0.1 µg/ml) | 0 |
| 1J15 (antibody, IgG1, V domains shown, Rabbit monoclonal IgG1; Tested as supernatant and as small batch purified antibody; also called MAGE-B2 (IJ15); anti-MAGEB2 antibody 1J15) VH: QSLEESGGGLVQPEGSLTLTCTAFGFTLNNYYICWVRQAPGKGLEWIACIDNANGRTYYASWAKGRFTISKTSSTTVTLQMTSLTAADTATYFCARSLSTPLWGPGTLVTVSS VL: DIVMTQTPASVEAAVGGTVTIKCQASQSISSYLSWYQQKPGQPPKLLIYRASTLASGVPSRFRGSGSGTQFTLTISDLECADAATYYCQSYDDSSDNNFFYGFGGGTEVVVR | 70% | 1 | 0% | no binding (tested: 0.1 µg/ml) | 0% | 0 | no binding (tested: 0.1 µg/ml) |  |
